{"source": "patent US20050180949A1", "about": "(NUVELO, published 2005)", "biological_target": "the molecule itself", "assay": "non-reducing vs reducing SDS-PAGE of the purified protein, Western blot with HRP-conjugated anti-V5 antibody (self-association / oligomerization)", "description": "Purified recombinant full-length hC1Q/TNF7 protein expressed in HEK-293 cells was treated as follows: N=non-reduced only; N+H=non-reduced plus heating at 100° C. for 10 min; R=reduced only; and R+H=reduced plus heating at 100° C. for 10 min.\nStudies of C1Q and 1C1Q-related proteins, such as adiponectin (Ad), indicate that most of the proteins form trimer, hexamer and higher molecular weight species (Shapiro and Scherer, Curr. Biol. 8:335-338 (1998) herein incorporated by reference in its entirety). To determine the oligomerization status of the hC1Q/TNF7 protein, the HEK293-expressed full-length hC1Q/TNF7 was treated under various conditions: non-reduced only (N); non-reduced plus heating at 100° C. for 10 min (N+H); reduced only (R); and reduced plus heating at 100° C. for 10 min (R+H). […] After heat treatment under non-reducing conditions, hC1Q/TNF7 migrated in 3 major bands: approximately 40, approximately 80, and approximately 160 kDa (Lane 2). In contrast, when hC1Q/TNF7 was treated under reducing conditions with or without heating, it ran as a single band at approximately 40 kDa (Lanes 3 and 4). Similar results were obtained using hC1Q/TNF7-F1 protein and an N-terminal V5His-tagged version of full-length hC1Q/TNF7 (not shown).", "data": [{"protein": "full-length hC1Q/TNF7, carboxy-terminal V5His6-tagged, expressed in HEK-293 cells (ligand, The signal peptide cleavage site is only predicted; Oligomer state as told: dimers, tetramers and higher order oligomers; also called HEK293-expressed full-length hC1Q/TNF7; human C1Q/TNF7; not shown: C-terminal V5His6 tag from the pIntron vector) QPRGNQLKGENYSPRYICSIPGLPGPPGPPGANGSPGPHGRIGLPGRDGRDGRKGEKGEKGTAGLRGKTGPLGLAGEKGDQGETGKKGPIGPEGEKGEVGPIGPPGPKGDRGEQGDPGLPGVCRCGSIVLKSAFSVGITTSYPEERLPIIFNKVLFNEGEHYNPATGKFICAFPGIYYFSYDITLANKHLAIGLVHNGQYRIKTFDANTGNHDVASGSTVIYLQPEDEVWLEIFFTDQNGLFSDPGWADSLFSGFLLYVDTDYLDSISEDDEL", "values": [{"measurement": "binding result", "result": "binds"}]}]}
